{"source": "paper PMC5895705", "molecular_target": "Glucose-6-phosphate dehydrogenase aggregates formed at 50 °C (UniProt P11411)", "sequence (P11411 whole entry)": "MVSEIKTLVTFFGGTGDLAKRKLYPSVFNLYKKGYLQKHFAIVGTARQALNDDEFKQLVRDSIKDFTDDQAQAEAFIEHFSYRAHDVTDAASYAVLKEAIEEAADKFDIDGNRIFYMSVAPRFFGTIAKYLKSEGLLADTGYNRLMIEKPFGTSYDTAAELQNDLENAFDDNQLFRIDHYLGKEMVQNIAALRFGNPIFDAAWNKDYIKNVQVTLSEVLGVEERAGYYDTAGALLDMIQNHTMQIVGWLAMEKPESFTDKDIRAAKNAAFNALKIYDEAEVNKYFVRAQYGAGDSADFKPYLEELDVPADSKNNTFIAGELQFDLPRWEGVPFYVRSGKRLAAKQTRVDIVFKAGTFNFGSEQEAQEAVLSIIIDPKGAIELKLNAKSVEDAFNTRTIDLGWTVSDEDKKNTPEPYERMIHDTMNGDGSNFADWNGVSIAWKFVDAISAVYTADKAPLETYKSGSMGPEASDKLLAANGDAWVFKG", "experiment": "co-sedimentation; as a1 but ClpB homo- or heterohexamers (5 μM) with G6PDH50 aggregates in the absence of DnaK", "data": [{"substance": "ClpB_(E279A/E678A) (from UniProt P63284 1-857) (natural protein)", "values": [{"measurement": "fold binding relative to wt ClpB (in the absence of DnaK)", "value": 4, "unit": "fold"}]}]}
